The series concerns the molecule itself. The series is described as follows: cryo-EM structure.

B1: HCMV UL141 soluble ectodomain (residues 30-278) with C-terminal 8X His-Tag (domain or fragment)
chain: SFPFATADIAEKMWAENYETTSPAPVLVAEGEQVTIPCTVMTHSWPMVSIRARFCRSHDGSDELILDAVKGHRLMNGLQYRLPYATWNFSQLHLGQIFSLTFNVSTDTAGMYECVLRNYSHGLIMQRFVILTQLETLSRPDEPCCTPALGRYSLGDQIWSPTPWRLRNHDCGMYRGFQRNYFYIGRADAEDCWKPACPDEEPDRCWTVIQRYRLPGDCYRSQPHPPKFLPVTPAPPADIDTGMSPWATR
Consider B1, for which the “stoichiometry N” value stood at 2.

The stoichiometry N is the number of molecules, sites or subunits per partner or assembly.

Source of the values: article PMC11482907 (bioRxiv, 2024).
